In PMC9170159 (Proceedings of the National Academy of Sciences of the …, 2022) one finds Kd data, which are given here for 4 molecules.

Several values for one entry are separate records, joined by “and”; a condition that tells them apart may be missing. Equal entries are not always repeated.

Assay [1] addresses T1, SARS-CoV-2 (Wuhan-Hu-1) spike receptor-binding domain, His-tagged (SARS-CoV-2, UniProt P0DTC2 319-541). Description: BLI. Particulars: both partners purified.
Assay [2] concerns the target T1, SARS-CoV-2 (Wuhan-Hu-1) spike …. Description: BLI. Particulars: both partners purified. The source holds these as a separate data set.

B1: NCI-CoV-8A2 VHH-hFc fusion protein (Fc fusion)
VHH: AVQLVDSGGGSVQAGGSLRLSCAASGYTYSICTMGWYRQAPGEGLEWVSGINADGSNTHYTDSVKGRFTISRDNAKKTLYLQMNSLKPEDTAIYYCAAHGTYDKYAPCGGFAGTYTYWGQGTQVTVSS
notes: also called 8A2 VHH-Fc; source: Expi293 cells, transfected, purified (protein A column)
For orientation: Kd means the free concentration of one partner at which half of the binding sites on the other are occupied at equilibrium, for simple one-to-one binding. Take B1: the Kd in assay [1] is 0.26 nM and 0.13 nM; in assay [2] it was 0.26 nM.

B2: 8A4 VHH-hFc fusion protein (Fc fusion)
VHH: EVQLVESGGGLVQPGESLRLSCEASGFTFSSVYMSWVRQAPGKGLEWISTIHPAGGSTYYADSMKDRFTISRDNAKNTLYLQMNSLKSEDTALYYCIIEALSGYRGPGTQVTVSS
notes: also called 8A4 VHH-Fc; source: Expi293 cells, transfected, purified (protein A column)
For the molecule B2, the Kd in assay [1] is 0.14 nM and 0.18 nM; in assay [2] it was 0.16 nM.

B3: NCI-CoV-7A3 VHH-hFc fusion protein (Fc fusion)
VHH: QVQLVESGGGSVQPGGSLRLSCVVSGYTSSSRYMGWFRQVPGKGLEWVSGIKRDGTNTYYADSVKGRFTISQDNAKNTVYLQMNSLKPEDTAMYYCAAGSWYNQWGYSMDYWGKGTQVTVSS
notes: also called 7A3 VHH-Fc; source: Expi293 cells, transfected, purified (protein A column)
Turning to B3, the Kd in assay [1] was 0.19 nM and 0.2 nM; in assay [2], 0.2 nM.

B4: 1H6 VHH-hFc fusion protein (Fc fusion)
VHH: AVQLVDSGGGSVQAGGSLNLSCVASGTTLRNGCMAWFRQVPGKEREVVAIIIRATSYTDYADSVKGRFTISQDNAKNTVYLQMKSLTPEDTATYYCAATLYRVNCAKREFDKWGQGTQVTVSS
notes: also called 1H6 VHH-Fc; source: Expi293 cells, transfected, purified (protein A column)
Take B4: the Kd in assay [1] was 37 nM and 42 nM.
